Data taken from US20120172293A1 (Takeda / Millennium, published 2012).
Starred links: 1 amine or outer side, 2 acyl side, 3 side chain; linkers in the order of their positions; H or OH if unused. Non-standard residues stand in square brackets, D forms with d. No end group written: not given here. *: point of attachment. Ala(piperidin-4-yl) = O=C([C@H](CC1CCN([*:3])CC1)N[*:1])[*:2]; Phe(4-NH2) = Nc1ccc(C[C@H](N)C(=O)O)cc1; Phe(4-F) = N[C@@H](Cc1ccc(F)cc1)C(=O)O; 1Nal = N[C@@H](Cc1cccc2ccccc12)C(=O)O; 2Nal = N[C@@H](Cc1ccc2ccccc2c1)C(=O)O; Arg(Me) = CNC(=N)NCCC[C@H](N)C(=O)O; Ala(cPr) = N[C@@H](CC1CC1)C(=O)O; Cha = N[C@@H](CC1CCCCC1)C(=O)O; 4Amb = NCc1ccc(C(=O)O)cc1; Nva = CCC[C@H](N)C(=O)O; 2Abz = Nc1ccccc1C(=O)O; Dap = NC[C@H](N)C(=O)O; Aib = CC(C)(N)C(=O)O; Bz = O=C(c1ccccc1)*

T1: human Y2 receptor (human, UniProt P49146 1-381)
T1 sequence (looked up): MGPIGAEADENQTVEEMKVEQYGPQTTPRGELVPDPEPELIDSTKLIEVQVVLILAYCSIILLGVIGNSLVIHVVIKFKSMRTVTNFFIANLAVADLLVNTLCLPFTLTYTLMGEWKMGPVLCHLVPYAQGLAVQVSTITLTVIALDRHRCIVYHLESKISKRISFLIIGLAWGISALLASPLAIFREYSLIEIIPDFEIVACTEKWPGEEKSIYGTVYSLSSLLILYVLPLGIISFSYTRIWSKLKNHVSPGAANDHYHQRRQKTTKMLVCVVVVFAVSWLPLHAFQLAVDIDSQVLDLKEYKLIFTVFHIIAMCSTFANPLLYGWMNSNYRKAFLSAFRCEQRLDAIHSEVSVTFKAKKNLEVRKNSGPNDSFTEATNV

B1: 4-Aminomethylbenzoyl-[Lys25, Ala26, Ile28,31]-PYY(25-36) (peptide)
peptide: [4Amb]KAYINLITRQRY-NH2
modifications: N-terminus assumed
SMILES: CC[C@H](C)[C@H](NC(=O)[C@H](Cc1ccc(O)cc1)NC(=O)[C@H](C)NC(=O)[C@H](CCCCN)NC(=O)c1ccc(CN)cc1)C(=O)N[C@@H](CC(N)=O)C(=O)N[C@@H](CC(C)C)C(=O)N[C@H](C(=O)N[C@H](C(=O)N[C@@H](CCCNC(=N)N)C(=O)N[C@@H](CCC(N)=O)C(=O)N[C@@H](CCCNC(=N)N)C(=O)N[C@@H](Cc1ccc(O)cc1)C(N)=O)[C@@H](C)O)[C@@H](C)CC
notes: also called compound No. 49
B2: Benzoyl-[Dap27, Ile28,31, Trp30, Cha36]-PYY(25-36) (peptide)
peptide: Bz-RH[Dap]INWITRQR[Cha]-NH2
SMILES: CC[C@H](C)[C@H](NC(=O)[C@H](CN)NC(=O)[C@H](Cc1c[nH]cn1)NC(=O)[C@H](CCCNC(=N)N)NC(=O)c1ccccc1)C(=O)N[C@@H](CC(N)=O)C(=O)N[C@@H](Cc1c[nH]c2ccccc12)C(=O)N[C@H](C(=O)N[C@H](C(=O)N[C@@H](CCCNC(=N)N)C(=O)N[C@@H](CCC(N)=O)C(=O)N[C@@H](CCCNC(=N)N)C(=O)N[C@@H](CC1CCCCC1)C(N)=O)[C@@H](C)O)[C@@H](C)CC
notes: also called compound No. 67
B3: 4-Aminomethylbenzoyl-[Ala26, Aib27, Ile28,31]-PYY(25-36) (peptide)
peptide: [4Amb]RA[Aib]INLITRQRY-NH2
modifications: N-terminus assumed
SMILES: CC[C@H](C)[C@H](NC(=O)[C@H](CC(C)C)NC(=O)[C@H](CC(N)=O)NC(=O)[C@@H](NC(=O)C(C)(C)NC(=O)[C@H](C)NC(=O)[C@H](CCCNC(=N)N)NC(=O)c1ccc(CN)cc1)[C@@H](C)CC)C(=O)N[C@H](C(=O)N[C@@H](CCCNC(=N)N)C(=O)N[C@@H](CCC(N)=O)C(=O)N[C@@H](CCCNC(=N)N)C(=O)N[C@@H](Cc1ccc(O)cc1)C(N)=O)[C@@H](C)O
notes: also called compound No. 53
B4: Benzoyl-[Cha27,36, Ile28, Arg31]-PYY(25-36) (peptide)
peptide: Bz-RH[Cha]INLRTRQR[Cha]-NH2
SMILES: CC[C@H](C)[C@H](NC(=O)[C@H](CC1CCCCC1)NC(=O)[C@H](Cc1c[nH]cn1)NC(=O)[C@H](CCCNC(=N)N)NC(=O)c1ccccc1)C(=O)N[C@@H](CC(N)=O)C(=O)N[C@@H](CC(C)C)C(=O)N[C@@H](CCCNC(=N)N)C(=O)N[C@H](C(=O)N[C@@H](CCCNC(=N)N)C(=O)N[C@@H](CCC(N)=O)C(=O)N[C@@H](CCCNC(=N)N)C(=O)N[C@@H](CC1CCCCC1)C(N)=O)[C@@H](C)O
notes: also called compound No. 65
B5: 4-Aminomethylbenzoyl-[Ala(cPr)26, Ile28,32]-PYY(25-36) (peptide)
peptide: [4Amb]R[Ala(cPr)]YINLITRQRY-NH2
modifications: N-terminus assumed
SMILES: CC[C@H](C)[C@H](NC(=O)[C@H](Cc1ccc(O)cc1)NC(=O)[C@H](CC1CC1)NC(=O)[C@H](CCCNC(=N)N)NC(=O)c1ccc(CN)cc1)C(=O)N[C@@H](CC(N)=O)C(=O)N[C@@H](CC(C)C)C(=O)N[C@H](C(=O)N[C@H](C(=O)N[C@@H](CCCNC(=N)N)C(=O)N[C@@H](CCC(N)=O)C(=O)N[C@@H](CCCNC(=N)N)C(=O)N[C@@H](Cc1ccc(O)cc1)C(N)=O)[C@@H](C)O)[C@@H](C)CC
notes: name prints Ile28,32; also called compound No. 48
B6: Benzoyl-[Ala(4Pip)27, Ile28,31, Trp30, Cha36]-PYY(25-36) (peptide)
peptide: Bz-RH[Ala(piperidin-4-yl)]INWITRQR[Cha]-NH2
modifications: also: Ala(4Pip) D or L form not assigned (later peak)
notes: Ala(4Pip) is any of D-form and L-form; also called compound No. 66
B7: 4-Aminomethylbenzoyl-[Ala26, Ile28,31, Nva32]-PYY(25-36) (peptide)
peptide: [4Amb]RAYINLI[Nva]RQRY-NH2
modifications: N-terminus assumed
SMILES: CCC[C@H](NC(=O)[C@@H](NC(=O)[C@H](CC(C)C)NC(=O)[C@H](CC(N)=O)NC(=O)[C@@H](NC(=O)[C@H](Cc1ccc(O)cc1)NC(=O)[C@H](C)NC(=O)[C@H](CCCNC(=N)N)NC(=O)c1ccc(CN)cc1)[C@@H](C)CC)[C@@H](C)CC)C(=O)N[C@@H](CCCNC(=N)N)C(=O)N[C@@H](CCC(N)=O)C(=O)N[C@@H](CCCNC(=N)N)C(=O)N[C@@H](Cc1ccc(O)cc1)C(N)=O
notes: also called compound No. 61
B8: 4-Aminomethylbenzoyl-[Ala26, Ile28,31, Aib30]-PYY(25-36) (peptide)
peptide: [4Amb]RAYIN[Aib]ITRQRY-NH2
modifications: N-terminus assumed
SMILES: CC[C@H](C)[C@H](NC(=O)[C@H](Cc1ccc(O)cc1)NC(=O)[C@H](C)NC(=O)[C@H](CCCNC(=N)N)NC(=O)c1ccc(CN)cc1)C(=O)N[C@@H](CC(N)=O)C(=O)NC(C)(C)C(=O)N[C@H](C(=O)N[C@H](C(=O)N[C@@H](CCCNC(=N)N)C(=O)N[C@@H](CCC(N)=O)C(=O)N[C@@H](CCCNC(=N)N)C(=O)N[C@@H](Cc1ccc(O)cc1)C(N)=O)[C@@H](C)O)[C@@H](C)CC
notes: also called compound No. 47
B9: 4-Aminomethylbenzoyl-[Ala26, Phe(4NH2)27, Ile28,31]-PYY(25-36) (peptide)
peptide: [4Amb]RA[Phe(4-NH2)]INLITRQRY-NH2
modifications: N-terminus assumed
SMILES: CC[C@H](C)[C@H](NC(=O)[C@H](Cc1ccc(N)cc1)NC(=O)[C@H](C)NC(=O)[C@H](CCCNC(=N)N)NC(=O)c1ccc(CN)cc1)C(=O)N[C@@H](CC(N)=O)C(=O)N[C@@H](CC(C)C)C(=O)N[C@H](C(=O)N[C@H](C(=O)N[C@@H](CCCNC(=N)N)C(=O)N[C@@H](CCC(N)=O)C(=O)N[C@@H](CCCNC(=N)N)C(=O)N[C@@H](Cc1ccc(O)cc1)C(N)=O)[C@@H](C)O)[C@@H](C)CC
notes: also called compound No. 52
B10: [Abz(2)24, Cha27,36, Ile28,31, Trp30]-PYY(24-36) (peptide)
peptide: [2Abz]RH[Cha]INWITRQR[Cha]-NH2
modifications: N-terminus assumed
SMILES: CC[C@H](C)[C@H](NC(=O)[C@H](CC1CCCCC1)NC(=O)[C@H](Cc1c[nH]cn1)NC(=O)[C@H](CCCNC(=N)N)NC(=O)c1ccccc1N)C(=O)N[C@@H](CC(N)=O)C(=O)N[C@@H](Cc1c[nH]c2ccccc12)C(=O)N[C@H](C(=O)N[C@H](C(=O)N[C@@H](CCCNC(=N)N)C(=O)N[C@@H](CCC(N)=O)C(=O)N[C@@H](CCCNC(=N)N)C(=O)N[C@@H](CC1CCCCC1)C(N)=O)[C@@H](C)O)[C@@H](C)CC
notes: also called compound No. 68
B11: 4-Aminomethylbenzoyl-[Ala26, Ile28,31, Nal(2)30]-PYY(25-36) (peptide)
peptide: [4Amb]RAYIN[2Nal]ITRQRY-NH2
modifications: N-terminus assumed
SMILES: CC[C@H](C)[C@H](NC(=O)[C@H](Cc1ccc(O)cc1)NC(=O)[C@H](C)NC(=O)[C@H](CCCNC(=N)N)NC(=O)c1ccc(CN)cc1)C(=O)N[C@@H](CC(N)=O)C(=O)N[C@@H](Cc1ccc2ccccc2c1)C(=O)N[C@H](C(=O)N[C@H](C(=O)N[C@@H](CCCNC(=N)N)C(=O)N[C@@H](CCC(N)=O)C(=O)N[C@@H](CCCNC(=N)N)C(=O)N[C@@H](Cc1ccc(O)cc1)C(N)=O)[C@@H](C)O)[C@@H](C)CC
notes: also called compound No. 56
B12: 4-Aminomethylbenzoyl-[Ala26, Ile28,31, Nal(1)30]-PYY(25-36) (peptide)
peptide: [4Amb]RAYIN[1Nal]ITRQRY-NH2
modifications: N-terminus assumed
SMILES: CC[C@H](C)[C@H](NC(=O)[C@H](Cc1ccc(O)cc1)NC(=O)[C@H](C)NC(=O)[C@H](CCCNC(=N)N)NC(=O)c1ccc(CN)cc1)C(=O)N[C@@H](CC(N)=O)C(=O)N[C@@H](Cc1cccc2ccccc12)C(=O)N[C@H](C(=O)N[C@H](C(=O)N[C@@H](CCCNC(=N)N)C(=O)N[C@@H](CCC(N)=O)C(=O)N[C@@H](CCCNC(=N)N)C(=O)N[C@@H](Cc1ccc(O)cc1)C(N)=O)[C@@H](C)O)[C@@H](C)CC
notes: also called compound No. 55
B13: [D-Ala22, Ala26, Ile28,31, Arg(Me)35]-PYY(22-36) (peptide)
peptide: [dA]SLRAYINLITRQ[Arg(Me)]Y-NH2
modifications: N-terminus assumed
SMILES: CC[C@H](C)[C@H](NC(=O)[C@H](Cc1ccc(O)cc1)NC(=O)[C@H](C)NC(=O)[C@H](CCCNC(=N)N)NC(=O)[C@H](CC(C)C)NC(=O)[C@H](CO)NC(=O)[C@@H](C)N)C(=O)N[C@@H](CC(N)=O)C(=O)N[C@@H](CC(C)C)C(=O)N[C@H](C(=O)N[C@H](C(=O)N[C@@H](CCCNC(=N)N)C(=O)N[C@@H](CCC(N)=O)C(=O)N[C@@H](CCCNC(=N)NC)C(=O)N[C@@H](Cc1ccc(O)cc1)C(N)=O)[C@@H](C)O)[C@@H](C)CC
notes: also called compound No. 3
B14: 4-Aminomethylbenzoyl-[Ala26, Ile28,31, Phe(4F)30]-PYY(25-36) (peptide)
peptide: [4Amb]RAYIN[Phe(4-F)]ITRQRY-NH2
modifications: N-terminus assumed
SMILES: CC[C@H](C)[C@H](NC(=O)[C@H](Cc1ccc(O)cc1)NC(=O)[C@H](C)NC(=O)[C@H](CCCNC(=N)N)NC(=O)c1ccc(CN)cc1)C(=O)N[C@@H](CC(N)=O)C(=O)N[C@@H](Cc1ccc(F)cc1)C(=O)N[C@H](C(=O)N[C@H](C(=O)N[C@@H](CCCNC(=N)N)C(=O)N[C@@H](CCC(N)=O)C(=O)N[C@@H](CCCNC(=N)N)C(=O)N[C@@H](Cc1ccc(O)cc1)C(N)=O)[C@@H](C)O)[C@@H](C)CC
notes: also called compound No. 58

Tests used:
human Y2 receptor [1] = molecular target: T1, human Y2 receptor; test: cell-based or functional assay
human Y2 receptor [2] = molecular target: T1, human Y2 receptor; test: RBA: [125I]-PYY displacement, hY2R/CHO membranes
Procedure, shortened: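 Bound radioligand was collected by filtration on PEI-treated GF/C filters, washed with Tris/MgCl₂/NaCl/CHAPS buffer pH 7.4, and counted by scintillation; IC₅₀ values were calculated.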

Binder | GBA EC50 Ratio (vs PYY(3-36)), [35S]GTPγS (human Y2 receptor [1]) [ratio] | IC50 Ratio (vs PYY(3-36)) (human Y2 receptor [2]) [ratio]
B1 | 24 | 34
Ac-YYASLRAYINLITRQRY-NH2 (also called compound No. 5) [Ac-[Ala26, Ile28,31]-PYY(20-36)] | 8.1 | 9.8
B2 | 22 | 34
B3 | 7.5 | 18
B4 | 16 | 15
B5 | 4.1 | 8.1
B6 | 2.9 | 4.8
B7 | 17 | 29
B8 | 23 | 49
B9 | 5.7 | 11
B10 | 15 | 19
B11 | 2.4 | 4.1
B12 | 3 | 3.4
B13 | 2.7 | 6
B14 | 2.9 | 4.1
